This is an account of results in the supplement of paper PMC10567573.

The chains are these.
B1: TRIM43 (parent)
chain: FCDMDKSLLCLLCSNSQEHGAHKH
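Further: lentivirally expressed fusions sorted by FACS into six bins by GFP to DsRed ratio, PSI derived from sequencing read proportions per bin multiplied by bin number.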

Variants of B1 are the subject of this series. Kind of series: protein stability index of a GFP-peptide fusion (GPS, HEK-293T) (PSI 1-6); higher = more stable. The following applies: c terminus: a fixed tail appended.
Consider FCDMDKSLLCLLCSNSQDHGAHKH [E18D], for which the protein stability index turned out to be 2.11.
With FCDMDKSLLCLLCSNSQNHGAHKH [E18N] the figure was 1.87.
For the variant FCDMDKSLLCLLCSNSQMHGAHKH [E18M], the protein stability index is 1.83.
With FCDMDKSLLCLLCSNSQYHGAHKH [E18Y] the figure was 1.71; with FCDMDKSLLCLLCSNSQLHGAHKH [E18L], 1.7; with FCDMDKSLLCLLCSNSQIHGAHKH [E18I], 1.4.
For FCDMDKSLLCLLCSNSQTHGAHKH [E18T], the protein stability index was 1.68.
As for FCDMDKSLLCLLCSNSQWHGAHKH [E18W], the protein stability index was found to be 1.98.
The result for FCDMDKSLLCLLCSNSQAHGAHKH [E18A] reads 2.12; that for FCDMDKSLLCLLCSNSQVHGAHKH [E18V], 2.28.
For the variant FCDMDKSLLCLLCSNSQGHGAHKH [E18G], the protein stability index turned out to be 1.78.
In the case of FCDMDKSLLCLLCSNSQSHGAHKH [E18S], the protein stability index is 1.63.
Regarding FCDMDKSLLCLLCSNSQRHGAHKH [E18R], the protein stability index turned out to be 1.86.
With FCDMDKSLLCLLCSNSQHHGAHKH [E18H] the figure was 1.81; with FCDMDKSLLCLLCSNSQCHGAHKH [E18C], 2.3.
For the variant FCDMDKSLLCLLCSNSQKHGAHKH [E18K], the protein stability index came out at 1.86.
Turning to FCDMDKSLLCLLCSNSQPHGAHKH [E18P], the protein stability index amounted to 1.83.
As for FCDMDKSLLCLLCSNSQQHGAHKH [E18Q], the protein stability index worked out at 1.93.
The result for FCDMDKSLLCLLCSNSQFHGAHKH [E18F] reads 1.75; that for FCDMDKSLLCLLCSNSQEHGAHKL [H24L], 1.53; that for FCDMDKSLLCLLCSNSQEHGAHKR [H24R], 1.86.
FCDMDKSLLCLLCSNSQEHGAHKG [H24G]: the protein stability index came out at 1.77.
The result for FCDMDKSLLCLLCSNSQEHGAHKK [H24K] reads 1.89; that for FCDMDKSLLCLLCSNSQEHGAHKN [H24N], 2.26; that for FCDMDKSLLCLLCSNSQEHGAHKP [H24P], 1.69.
For FCDMDKSLLCLLCSNSQEHGAHKA [H24A], the protein stability index is 1.72.
With FCDMDKSLLCLLCSNSQEHGAHKI [H24I] the figure was 1.7.
With FCDMDKSLLCLLCSNSQEHGAHKW [H24W] the figure was 1.84; with FCDMDKSLLCLLCSNSQEHGAHKV [H24V], 2.04; with FCDMDKSLLCLLCSNSQEHGAHKC [H24C], 2.4.
As for FCDMDKSLLCLLCSNSQEHGAHKF [H24F], the protein stability index was determined as 1.43.
The result for FCDMDKSLLCLLCSNSQEHGAHKY [H24Y] reads 1.36.
Regarding FCDMDKSLLCLLCSNSQEHGAHKS [H24S], the protein stability index was 1.58.
On to FCDMDKSLLCLLCSNSQEHGAHKD [H24D], for which the protein stability index worked out at 2.18.
With FCDMDKSLLCLLCSNSQEHGAHKM [H24M] the figure was 1.48; with FCDMDKSLLCLLCSNSQEHGAHKT [H24T], 1.66.
Turning to FCDMDKSLLCLLCSNSQEHGAHKQ [H24Q], the protein stability index was found to be 2.22.
With FCDMDKSLLCLLCSNSQEHGAHKE [H24E] the figure was 1.65; with FCDMDKSLLCLLCSNNQEHGAHKH [S16N], 2.06.
Consider FCDMDKSLLCLLCSNAQEHGAHKH [S16A], for which the protein stability index worked out at 1.8.
The result for FCDMDKSLLCLLCSNPQEHGAHKH [S16P] reads 2.65.
With FCDMDKSLLCLLCSNDQEHGAHKH [S16D] the figure was 1.97; with FCDMDKSLLCLLCSNTQEHGAHKH [S16T], 2.07.
With FCDMDKSLLCLLCSNCQEHGAHKH [S16C] the figure was 1.87; with FCDMDKSLLCLLCSNEQEHGAHKH [S16E], 1.8; with FCDMDKSLLCLLCSNRQEHGAHKH [S16R], 2.12.
Turning to FCDMDKSLLCLLCSNGQEHGAHKH [S16G], the protein stability index is 2.22.
The result for FCDMDKSLLCLLCSNVQEHGAHKH [S16V] reads 2.23.
The result for FCDMDKSLLCLLCSNWQEHGAHKH [S16W] reads 1.75.
With FCDMDKSLLCLLCSNYQEHGAHKH [S16Y] the figure was 1.79; with FCDMDKSLLCLLCSNIQEHGAHKH [S16I], 1.57; with FCDMDKSLLCLLCSNFQEHGAHKH [S16F], 2.13.
For FCDMDKSLLCLLCSNHQEHGAHKH [S16H], the protein stability index was determined as 2.
FCDMDKSLLCLLCSNKQEHGAHKH [S16K]: the protein stability index was 2.04.
The result for FCDMDKSLLCLLCSNLQEHGAHKH [S16L] reads 2.15; that for FCDMDKSLLCLLCSNQQEHGAHKH [S16Q], 2.13; that for FCDMDKSLLCLLCSNMQEHGAHKH [S16M], 2.3.
Turning to FCDMDKSLLCLLCSNSQEHDAHKH [G20D], the protein stability index amounted to 2.19.
The result for FCDMDKSLLCLLCSNSQEHPAHKH [G20P] reads 2.27; that for FCDMDKSLLCLLCSNSQEHSAHKH [G20S], 1.99; that for FCDMDKSLLCLLCSNSQEHIAHKH [G20I], 1.66.
As for FCDMDKSLLCLLCSNSQEHFAHKH [G20F], the protein stability index is 1.67.
The result for FCDMDKSLLCLLCSNSQEHCAHKH [G20C] reads 2.59.
The result for FCDMDKSLLCLLCSNSQEHLAHKH [G20L] reads 1.74; that for FCDMDKSLLCLLCSNSQEHMAHKH [G20M], 1.47.
With FCDMDKSLLCLLCSNSQEHTAHKH [G20T] the figure was 2.12; with FCDMDKSLLCLLCSNSQEHNAHKH [G20N], 2.03; with FCDMDKSLLCLLCSNSQEHYAHKH [G20Y], 2.28.
For the variant FCDMDKSLLCLLCSNSQEHRAHKH [G20R], the protein stability index was 1.9.
For the variant FCDMDKSLLCLLCSNSQEHHAHKH [G20H], the protein stability index stood at 1.92.
The result for FCDMDKSLLCLLCSNSQEHKAHKH [G20K] reads 1.93.
With FCDMDKSLLCLLCSNSQEHWAHKH [G20W], the protein stability index amounted to 1.56.
Regarding FCDMDKSLLCLLCSNSQEHEAHKH [G20E], the protein stability index was 2.36.
In the case of FCDMDKSLLCLLCSNSQEHAAHKH [G20A], the protein stability index is 1.89.
As for FCDMDKSLLCLLCSNSQEHQAHKH [G20Q], the protein stability index worked out at 1.95.
The result for FCDMDKSLLCLLCSNSQEHVAHKH [G20V] reads 2.35.
With FCDMDKSLLCLLCSNSQEHGTHKH [A21T] the figure was 2.07.
With FCDMDKSLLCLLCSNSQEHGIHKH [A21I] the figure was 1.47; with FCDMDKSLLCLLCSNSQEHGDHKH [A21D], 2.08.
In the case of FCDMDKSLLCLLCSNSQEHGSHKH [A21S], the protein stability index stood at 2.02.
Consider FCDMDKSLLCLLCSNSQEHGYHKH [A21Y], for which the protein stability index is 1.48.
On to FCDMDKSLLCLLCSNSQEHGLHKH [A21L], for which the protein stability index was 1.97.
With FCDMDKSLLCLLCSNSQEHGGHKH [A21G] the figure was 2.26; with FCDMDKSLLCLLCSNSQEHGEHKH [A21E], 1.83.
With FCDMDKSLLCLLCSNSQEHGWHKH [A21W], the protein stability index is 1.54.
FCDMDKSLLCLLCSNSQEHGRHKH [A21R]: the protein stability index was 2.16.
As to FCDMDKSLLCLLCSNSQEHGNHKH [A21N], the protein stability index was 1.84.
On to FCDMDKSLLCLLCSNSQEHGMHKH [A21M], for which the protein stability index was determined as 2.33.
On to FCDMDKSLLCLLCSNSQEHGHHKH [A21H], for which the protein stability index was found to be 1.98.
The result for FCDMDKSLLCLLCSNSQEHGPHKH [A21P] reads 2.22; that for FCDMDKSLLCLLCSNSQEHGCHKH [A21C], 2.38.
Regarding FCDMDKSLLCLLCSNSQEHGQHKH [A21Q], the protein stability index worked out at 2.23.
With FCDMDKSLLCLLCSNSQEHGFHKH [A21F], the protein stability index is 2.1.
Consider FCDMDKSLLCLLCSNSQEHGKHKH [A21K], for which the protein stability index was 1.98.
